Assay results as given in the supplement of paper PMC10567573.

B1: CLCN6 (parent)
chain: TGLVGLFVDFFVRLFTQLKFGVVQ

Variants of: B1
Assay: protein stability index of a GFP-peptide fusion (GPS, HEK-293T) (PSI 1-6); higher = more stable
Conditions: c terminus: a fixed tail appended
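Note: lentivirally expressed fusions sorted by FACS into six bins by GFP to DsRed ratio, PSI derived from sequencing read proportions per bin multiplied by bin number.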

Protein stability index of substitutions, site by site:
F15: S 2.76 | M 1.77 | N 2.67 | C 2.2 | V 2.72 | Q 3.33 | D 2.88 | A 1.96 | L 1.96 | T 2.51 | G 2.95 | H 2.71 | I 3.25 | W 3.46 | P 2.86 | Y 2.73 | K 2.12 | R 2.27
L14: W 2.8 | Y 2.25
F20: E 3.61 | I 2.97 | D 4.13 | H 2.58 | A 3.03 | P 2.12 | C 3.79 | G 2.89 | Q 3.83 | R 4.55 | L 2.96 | K 4.3 | W 2.63 | M 2.77 | Y 2.55 | S 3.86 | V 2.84 | N 3.99 | T 3.48
Q24: W 2.36 | P 1.88 | Y 1.74 | D 2.46 | C 1.26 | R 3.77 | I 2.66 | T 1.6 | G 2.32 | N 2.55 | M 1.9 | E 2.08 | F 1.18 | K 3.16 | A 1.66 | H 2.07 | V 1.71 | L 2.14 | S 2.94
T16: D 2.42 | C 1.99 | F 2.04 | H 2.78 | R 3.85 | I 2.41 | M 2.35 | N 3.55 | V 1.78 | P 1.8 | G 2.81 | Q 3 | E 1.75 | Y 1.98 | S 2.91 | L 2.02 | K 2.76 | A 2.43 | W 3.32
Q17: N 2.44 | F 2.44 | T 2.12 | K 2.48 | G 1.77 | Y 2.06 | S 2.81 | H 2.26 | E 2 | I 1.79 | M 2.09 | D 1.81 | R 3.5 | W 3.5 | V 2.14 | P 2.08 | C 2.01 | A 2.38 | L 2.43
L18: N 3.66 | R 2.74 | S 2.03 | T 2.75 | G 2.21 | W 1.66 | P 2.63 | A 1.97 | C 2.36 | Y 3.06 | M 2.48 | K 2.02 | H 3.39 | V 1.98 | D 2.25 | F 2.46 | I 2.7
K19: T 2.33 | S 2.92 | A 2.84 | P 1.91 | W 3.05 | D 3.05 | E 4.38 | L 2.56 | F 1.89 | Y 2.85 | M 3.13 | N 2.21 | G 1.98 | R 2.17 | Q 2.89 | H 3.23 | V 2.66
G21: K 3.7 | S 3.08 | H 3.06 | D 2.38 | R 3.56 | A 3.26 | F 3.79 | T 2.4 | Q 2.77 | E 2.3 | M 3.39 | N 2.38 | C 1.86 | P 2.35 | I 2.94 | W 3.59 | V 3 | L 3.33 | Y 3.39
V23: F 2.98 | N 2 | S 2.73 | G 2.18 | D 2.41 | C 2.78 | W 3.3 | T 2.36 | Q 2.77 | H 1.81 | I 2.23 | K 2.45 | L 2.92 | E 1.94 | Y 2.51 | R 3.09 | P 1.97 | M 2.68
